According to patent US11324803B2, “Methods and compositions for treatment of Gaucher Disease via modulation of C5a receptor” (Children's Hospital Medical Center, priority 2015, dated 2022):

Tests used:
[1] = molecular target: T1, C5aR1 (Mus musculus, UniProt P30993); test: C5aR antagonist A8^Δ71-73 (C5aRA) i.p. treatment of Gaucher disease-prone 9V/null mice; format: in vivo; conditions: for pro-inflammatory cytokine (and chemokine) production: DCs and T cells of C5aRA-treated 9V/null mice
T1 construct: endogenous in cells; host or cells: WT and 9V/null mice (mixed FVB/C57BL 6J/129SvEvBrd background), in vivo
T1 sequence (P30993 1-351): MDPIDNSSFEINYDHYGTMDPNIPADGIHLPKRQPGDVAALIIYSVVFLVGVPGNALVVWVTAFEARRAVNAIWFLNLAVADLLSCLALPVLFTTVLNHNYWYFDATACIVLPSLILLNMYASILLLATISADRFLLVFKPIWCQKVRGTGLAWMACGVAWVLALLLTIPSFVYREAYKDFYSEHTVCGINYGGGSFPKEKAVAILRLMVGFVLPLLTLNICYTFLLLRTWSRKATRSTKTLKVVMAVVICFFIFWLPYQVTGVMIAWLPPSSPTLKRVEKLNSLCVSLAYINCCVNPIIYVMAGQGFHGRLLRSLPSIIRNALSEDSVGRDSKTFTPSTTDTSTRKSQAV
From the text: Sera from human patients with Gaucher disease (n=10) and healthy volunteers (n=15) were from the freezer and de-identified. Human patients with Gaucher disease were diagnosed at Cincinnati Children's Hospital Medical Center (CCHMC). […] The study was approved by the ethics committee at CCHMC. In vivo C5aR1 deficiency or blockade in 9V/null mice and in a CBE-induced mouse model of Gaucher disease. To assess the impact of genetic or pharmacological targeting of C5aR1 on the inflammatory response in Gaucher disease, WT (n=10) and C5aR1^−/− mice (n=10) were treated with conduritol B epoxide (CBE), which is an irreversible inhibitor of acid β-glucosidase^24. More specifically, both mouse strains were injected intraperitoneally (i.p.) with 100 mg CBE/kg body weight or vehicle (PBS)/day for up to 60 days, which was the termination point of these experiments. After 60 days of the indicated treatment with CBE, immune cells (MΦs, DCs, and T cells) were purified from lung of these mouse strains and used for measurement of GC, costimulatory molecules, and several of the pro-inflammatory cytokines. In additional experiments, WT (n=15) or 9V/null mice (n=15) were injected with 100 μl of the C5aR antagonist A8^Δ71-73 (i.p. 0.5 mg/kg) or vehicle (100 μl, PBS) on five consecutive days. Five days after the final C5aRA treatment, liver, spleen and lung were separated and measured for GC accumulation. Further, DCs and CD4^+ T cells were purified from the lung of the indicated mouse strains and measured for costimulatory molecule expression and the production of pro-inflammatory cytokines. Preparation of tissue cells. Liver, spleen, lung and BM were harvested aseptically. Single cell suspensions from liver and lung were obtained from minced pieces that were treated with Liberase Cl (0.5 mg/mL) and DNase (0.5 mg/mL) in RPMI (45 min, 37° C.). Single cell suspensions from spleen were obtained by grinding and then filtration through a 70-micron cell strainer. […] For BM cells, femurs, tibias and humeri were flushed with sterile phosphate buffered saline (PBS), followed by RBC lysis (155 mM NH4Cl, 10 mM NaHCO3, 0.1 mM EDTA), passage through a strainer. Cells were then pelleted by centrifugation at 350×g. Viable cells were counted using a Neubauer chamber and trypan blue exclusion. DCs, MΦs, and CD4^+ T lymphocytes were purified from single cell suspensions of liver, spleen, and lung using CD11c, CD11b, and CD4 (L3T4) microbeads according to the manufacturer's protocol. The purity of the cells was ˜90%-95%.
Tissue cells were suspended in PBS containing 1% BSA. After incubation (15 min, 4° C.) with Fc©R-blocking antibody 2.4G2, cells were stained (45 min, 4° C.) with the following antibodies to identify APCs and T cell: CD4 for T cells; CD11b and F4/80 for Ms; and CD11b and CD11c for DCs. Cells were also stained with the respective isotype antibodies as controls. MΦs were first identified by their typical FSC/SSC pattern, F4/80 and CD11 expression. DCs were identified as CD11c^+CD11b^+ cells. Further, CD40, CD80 CD86 and C5aR1 expression was determined in tissue DCs. T cells were first characterized by their FSC/SSC pattern and CD3 staining. CD3^+T cells were further stained for CD4, CD40L and CD69 expression. A total of […] were acquired for each cell type isolated from the different organs. Specific surface expression was assessed relative to the expression of the corresponding isotype control antibody. Fortessa-I, Fortessa-II, and LSRII flow cytometers were used to characterize the cells. FCS express (version 4; DeNovo Software) was used to analyze the data.
Lipids were extracted from tissues (5 mg; liver, spleen, and lung), purified immune cells, (e.g., MΦ, DCs, and CD4^+T) and GC-specific IgG2a by chloroform and methanol^2, 25, 26. […]

[2] = molecular target: T2, C5aR1 (Homo sapiens, UniProt P21730); conditions: cited from earlier work
T2 sequence (P21730 1-350): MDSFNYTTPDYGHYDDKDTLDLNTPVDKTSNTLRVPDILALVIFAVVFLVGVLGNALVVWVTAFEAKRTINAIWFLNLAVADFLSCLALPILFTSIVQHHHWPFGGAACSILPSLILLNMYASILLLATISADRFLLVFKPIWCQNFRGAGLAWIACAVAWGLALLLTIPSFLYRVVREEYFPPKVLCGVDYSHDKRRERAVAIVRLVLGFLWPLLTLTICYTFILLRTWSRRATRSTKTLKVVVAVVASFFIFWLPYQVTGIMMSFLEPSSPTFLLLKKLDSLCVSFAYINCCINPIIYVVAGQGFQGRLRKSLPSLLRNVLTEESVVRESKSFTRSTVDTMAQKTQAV

[3] = molecular target: T3, mouse C5aR1 (Mus musculus, UniProt P30993); conditions: cited from earlier work
T3 sequence (P30993 1-351): T1 sequence (P30993 1-351)

[4] = molecular target: human C5aR2 (C5L2) (Homo sapiens, UniProt Q9P296); conditions: cited from earlier work
[5] = tested on: C5a-induced effector functions; conditions: cited from earlier work
[6] = C5aRA-treated 9V/null mice, i.p. 0.5 mg/kg on five consecutive days, CD68+ immunohistochemistry
[7] = C5aRA-treated vs vehicle-injected 9V/null mice, ESI-LC-MS/MS
[8] = DC/CD4+ T cell co-culture 48 h from C5aRA-treated mice, ELISA
[9] = in response to C5aRA treatment, flow cytometry

human C5aR2 (C5L2), sequence (Q9P296 whole entry): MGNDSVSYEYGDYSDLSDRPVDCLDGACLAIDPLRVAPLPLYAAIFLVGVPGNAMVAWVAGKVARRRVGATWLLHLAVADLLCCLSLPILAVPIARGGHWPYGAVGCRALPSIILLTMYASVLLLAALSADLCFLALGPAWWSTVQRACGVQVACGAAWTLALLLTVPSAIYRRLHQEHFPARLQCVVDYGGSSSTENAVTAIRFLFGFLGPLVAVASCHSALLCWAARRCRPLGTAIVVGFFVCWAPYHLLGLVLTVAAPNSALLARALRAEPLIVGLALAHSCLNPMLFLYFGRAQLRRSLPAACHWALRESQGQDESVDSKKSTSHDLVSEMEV

B1: Thr Leu Gln Lys Lys Ile Glu Glu Ile Ala Ala Lys Tyr Lys His Ser Val Val Lys Lys Cys Cys Tyr Asp Gly Ala Ala Val Asn Asn Asp Glu Thr Cys Glu Gln Arg Ala Ala Arg Ile Ser Leu Gly Pro Arg Cys Ile Lys Ala … (protein)
chain: TLQKKIEEIAAKYKHSVVKKCCYDGAAVNNDETCEQRAARISLGPRCIKAFTECCVVASQLRANISFKRS
modifications: mutant C5a-(1-66, Cys27A1a) -A8B-Del. 71-73 of human C5a
notes: positions 27 and 68-71 of human C5a mutated and positions 72-74 deleted
- co-stimulatory molecule expression in DCs and CD4+ T cells ([1]; C5aRA-treated 9V/null mice): marked reduction
- MΦ infiltration of the liver [1, 6]: substantially reduced
- MΦ infiltration of the lung [1, 6]: substantially reduced
- MΦ infiltration of the spleen [1, 6]: substantially reduced
- co-stimulatory molecule expression in DCs and CD4+ T cells ([1]; C5aRA-treated 9V/null mice, listed as C5aR antagonist A8^Δ71-73): decreased levels
- GCs ([1]; C5aRA-treated 9V/null mice, liver and spleen (FIG. 12)): marked reduction
- GC storage in liver [1, 7]: significantly decreased
- GC storage in lung [1, 7]: significantly decreased
- GC storage in spleen [1, 7]: significantly decreased
- IFN-γ production [1, 8]: markedly decreased
- IL-1 production [1, 8]: markedly decreased
- IL-6 production [1, 8]: markedly decreased
- IL-17 production [1, 8]: markedly decreased
- TNF-α production [1, 8]: markedly decreased
- pro-inflammatory cytokine (and chemokine) production [1]: marked reduction
- pro-inflammatory cytokine (and chemokine) production ([1]; listed as C5aR antagonist A8^Δ71-73): less
- GC accumulation in MΦs ([1]; MΦs of treated 9V/null mice): marked reduction
- CD40L expression in CD4+ T cells [1, 9]: significantly reduced
- CD40 expression in pulmonary DCs [1, 9]: significantly reduced
- CD69 expression in CD4+ T cells [1, 9]: significantly reduced
- CD80 expression in pulmonary DCs [1, 9]: significantly reduced
- CD86 expression in pulmonary DCs [1, 9]: significantly reduced
- MΦs, DC and T cells mediated immune inflammation ([1]; mouse model of Gaucher disease, i.p.): significantly reduces
- loss of CD41+ platelets ([1]; treated 9V/null mice): decreased loss
- loss of Ter119+ RBCs ([1]; treated 9V/null mice): decreased loss
- affinity to bind human C5aR1 [2]: high affinity
- affinity to bind mouse C5aR1 [3]: high affinity
- affinity to bind human C5aR2 (C5L2) [4]: high affinity
- C5a-induced effector functions [5]: inhibit
